Data reported in the supplement of paper PMC7877785.
± gives the uncertainty stated by the source.

Experiment: self-splicing fitness, log relative to wild type (ln ratio); higher = more splicing; Tetrahymena group I intron in knt gene, E. coli kanamycin selection, DiMSum; sequences stand for … in CUCUCU…GGAGGGAAAAGUUAUCAGGCAUGCACCUGGUAGCUAGUCUUUAAACCAAUAGAUUGCAUCGGUUUAAAAGGCAAGACCGUCAAAUUGCGGGAAAGGGGUCAACAGCCGUUCAGUACCAAGUCUCAGGGGAAACUUUGAGAUGGCCUUGCAAAGGGUAUGGUAAUAAGCUGACGGACAUGGUCCUAACCACGCAGCCAAGUCCUAAGUCAACAGAUCUUCUGUUGAUAUGGAUGCAGUUCACAGACUAAAUGUCGGUCGGGGAAGAUGUAUUCUUCUCAUAAGAUAUAGUCGGACCUCUCCUUAAUGGGAGCUAGCGGAUGAAGUGAUGCAACACUGGAGCCGCUGGGAACUAAUUUGUAUGCGAAAGUAUAUUGAUUAGUUUUGGAGUACUCGUGGUCG
Procedure, shortened: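 Six replicate transformations of E. coli BL21(DE3) with a pET-22b(+) library were grown overnight at 37°C or 30°C. The library randomised all eight P1ex-region intron nucleotides, the intron lying in the knt kanamycin-resistance gene, and plates were LB agar with or without 25 μg/mL kanamycin plus 100 μg/mL carbenicillin, 50 μM IPTG and 0.2% rhamnose. Pooled colonies were amplicon-sequenced on an Illumina HiSeq 2500, and fitness is the DiMSum error-weighted combination of wild-type-normalised replicate fold changes, kanamycin versus none.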

Sequence | self-splicing fitness (ln) (30 °C) | self-splicing fitness (ln) (37 °C)
GUUUAGCAAUAUUACGCCUA | -0.696 ± 0.28 | -0.827 ± 0.4
GUUUAGCAAUAUUACGCGGA | -1.9 ± 0.24 | -1.82 ± 0.37
GUUUAGCAAUAUUACGGCAC | -0.0568 ± 0.4 | -0.227 ± 0.43
GUUUAGCAAUAUUACGGGAG | -1.44 ± 0.18 | -1.83 ± 0.2
GUUUAGCAAUAUUACGGGCG | -0.544 ± 0.2 | -1.38 ± 0.21
GUUUAGCAAUAUUACGGUGG | – | -2.33 ± 0.31
GUUUAGCAAUAUUACGGUUC | -1.09 ± 0.12 | -0.823 ± 0.15
GUUUAGCAAUAUUACGUAAC | -2.2 ± 0.29 | -1.96 ± 0.39
GUUUAGCAAUAUUACGUAGA | -2.37 ± 0.15 | -0.622 ± 0.2
GUUUAGCAAUAUUACGUCGU | -0.72 ± 0.21 | -0.885 ± 0.21
GUUUAGCAAUAUUACGUGUA | -2.53 ± 0.092 | -0.725 ± 0.077
GUUUAGCAAUAUUACGUGUU | -2.4 ± 0.13 | -2.35 ± 0.14
GUUUAGCAAUAUUACGUUAA | -1.87 ± 0.33 | -1.68 ± 0.24
UAAAAGCAAUAUUACGAAUG | -1.18 ± 0.067 | 0.0515 ± 0.081
UAAAAGCAAUAUUACGAAUU | -3.12 ± 0.15 | -1.95 ± 0.18
UAAAAGCAAUAUUACGACGC | -2.67 ± 0.18 | -0.32 ± 0.15
UAAAAGCAAUAUUACGACGG | 0.0981 ± 0.087 | -0.342 ± 0.13
UAAAAGCAAUAUUACGAGCA | -0.549 ± 0.088 | -0.276 ± 0.1
UAAAAGCAAUAUUACGAGGC | -2.69 ± 0.34 | -2.67 ± 0.36
UAAAAGCAAUAUUACGAUAU | -2.59 ± 0.1 | -0.953 ± 0.1
UAAAAGCAAUAUUACGCGCG | -0.577 ± 0.087 | 0.0302 ± 0.11
UAAAAGCAAUAUUACGCUCU | -1.02 ± 0.12 | -0.11 ± 0.14
UAAAAGCAAUAUUACGCUGU | -3.01 ± 0.23 | -2.26 ± 0.2
UAAAAGCAAUAUUACGGACG | 0.221 ± 0.11 | 0.00931 ± 0.13
UAAAAGCAAUAUUACGGAGG | -2.7 ± 0.17 | -2.07 ± 0.16
UAAAAGCAAUAUUACGGGAU | -3.01 ± 0.27 | -2.23 ± 0.18

Sequence | self-splicing fitness (ln) (30 °C) | self-splicing fitness (ln) (37 °C)
UAAAAGCAAUAUUACGGUCU | -1.83 ± 0.076 | -0.678 ± 0.079
UAAAAGCAAUAUUACGGUUA | 0.139 ± 0.067 | 0.222 ± 0.079
UAAAAGCAAUAUUACGUACG | -0.745 ± 0.084 | 0.35 ± 0.12
UAAAAGCAAUAUUACGUCCC | -2.74 ± 0.32 | -0.909 ± 0.24
UAAAAGCAAUAUUACGUCGG | -0.992 ± 0.097 | -0.876 ± 0.12
UAAAAGCAAUAUUACGUGCC | -2.01 ± 0.092 | -1.26 ± 0.12
UAAAAGCAAUAUUACGUGCU | -2.62 ± 0.1 | -1.56 ± 0.11
UAAAAGCAAUAUUACGUUCC | -3.46 ± 0.3 | -2.57 ± 0.29
UAAAAGCAAUAUUACGUUGA | -2.41 ± 0.11 | -1.46 ± 0.11
UAAAAGCAAUAUUACGUUUA | -1.14 ± 0.099 | -0.871 ± 0.099
UAACAGCAAUAUUACGAACC | -2.12 ± 0.17 | -1.73 ± 0.24
UAACAGCAAUAUUACGAACG | -0.391 ± 0.078 | 0.172 ± 0.11
UAACAGCAAUAUUACGACAU | -1.139 ± 0.011 | -0.372 ± 0.032
UAACAGCAAUAUUACGAGUA | -0.835 ± 0.099 | 0.134 ± 0.099
UAACAGCAAUAUUACGAUGU | -2.73 ± 0.13 | -2.08 ± 0.14
UAACAGCAAUAUUACGCACC | -2.33 ± 0.29 | -1.88 ± 0.43
UAACAGCAAUAUUACGCCCC | -1.03 ± 0.28 | -0.834 ± 0.47
UAACAGCAAUAUUACGCCGA | -1.95 ± 0.11 | -0.415 ± 0.089
UAACAGCAAUAUUACGCCGU | -3.54 ± 0.24 | -1.94 ± 0.19
UAACAGCAAUAUUACGCUCU | -1.12 ± 0.073 | -0.498 ± 0.08
UAACAGCAAUAUUACGCUGC | -2.45 ± 0.3 | -1.92 ± 0.28
UAACAGCAAUAUUACGGAUG | -1.51 ± 0.053 | -0.304 ± 0.063
UAACAGCAAUAUUACGGGUG | -0.577 ± 0.049 | -0.256 ± 0.068
UAACAGCAAUAUUACGGUAC | -3.84 ± 0.2 | -2.06 ± 0.13
UAACAGCAAUAUUACGGUCG | -0.363 ± 0.04 | -0.0859 ± 0.056
UAACAGCAAUAUUACGUAAG | -1.46 ± 0.07 | -1.25 ± 0.084

Sequence | self-splicing fitness (ln) (30 °C) | self-splicing fitness (ln) (37 °C)
UAACAGCAAUAUUACGUACA | -0.576 ± 0.071 | -0.319 ± 0.092
UAACAGCAAUAUUACGUCCG | -0.0665 ± 0.086 | 0.0833 ± 0.12
UAACAGCAAUAUUACGUGCG | -0.551 ± 0.072 | 0.0501 ± 0.085
UAACAGCAAUAUUACGUGGA | -3.11 ± 0.14 | -1.44 ± 0.08
UAACAGCAAUAUUACGUUAC | -3.91 ± 0.2 | -3.09 ± 0.24
UAAGAGCAAUAUUACGAAAU | – | -1.61 ± 0.32
UAAGAGCAAUAUUACGAAGU | -3.61 ± 0.31 | -1.85 ± 0.41
UAAGAGCAAUAUUACGAAUC | -2.87 ± 0.29 | -1.79 ± 0.35
UAAGAGCAAUAUUACGACGG | -3.85 ± 0.26 | -2.54 ± 0.21
UAAGAGCAAUAUUACGAGAG | -2.23 ± 0.38 | -1.95 ± 0.36
UAAGAGCAAUAUUACGAGCA | -3.18 ± 0.29 | -0.84 ± 0.14
UAAGAGCAAUAUUACGAGGA | -3.37 ± 0.29 | -2.25 ± 0.35
UAAGAGCAAUAUUACGAUGG | -3.51 ± 0.21 | -1.68 ± 0.16
UAAGAGCAAUAUUACGAUGU | -4.13 ± 0.26 | -1.82 ± 0.2
UAAGAGCAAUAUUACGCACA | – | -1.42 ± 0.33
UAAGAGCAAUAUUACGCCGC | -2.81 ± 0.41 | –
UAAGAGCAAUAUUACGCGUU | – | -2.04 ± 0.33
UAAGAGCAAUAUUACGCUUU | -2.81 ± 0.18 | -1.85 ± 0.31
UAAGAGCAAUAUUACGUAAG | -3.02 ± 0.2 | -2.1 ± 0.21
UAAGAGCAAUAUUACGUAUU | -4.58 ± 0.34 | -2.02 ± 0.2
UAAGAGCAAUAUUACGUCAG | -3.04 ± 0.25 | -2.33 ± 0.33
UAAGAGCAAUAUUACGUUAA | -3.21 ± 0.22 | -2.3 ± 0.2
UAAGAGCAAUAUUACGUUCA | -1.29 ± 0.13 | -0.735 ± 0.14
UAAGAGCAAUAUUACGUUUU | -3.31 ± 0.15 | -3.27 ± 0.2
UAAUAGCAAUAUUACGACCG | -0.0649 ± 0.15 | 0.638 ± 0.17
